B1: NlpA-[14B7 scFv] (scFv)
scFv: CDQSSSDIQMTQTTSSLSASLGDRVTISCRASQDIRNYLNWYQQKPDGTVKLLIYYTSRLQSGVPSRFSGSGSGTDYSLTISNQEQEDIGTYFCQQGNTLPWTFGGGTKLEIKRGGGGSGGGGSGGGGSGGGGSEVQLQQSGPELVKPGASVKISCKDSGYAFSSSWMNWVKQRPGQGLEWIGRIYPGDGDTNYNGKFKGKATLTADKSSSTAYMQLSSLTSVDSAVYFCARSGLLRYAMDYWGQGTSVTVSS
B2: M18 scAb (scFv)
chain: DIQMTQTTSSLSASLGDRVTVSCRASQDIRNYLNWYQQKPDGTVKFLIYYTSRLQPGVPSRFSGSGSGTDYSLTINNLEQEDIGTYFCQQGNTPPWTFGGGTKLEIKRGGGGSDGGGSGGGGSGGGGSEVQLQQSGPELVKPGASVKISCKDSGYAFNSSWMNWVKQRPGQGLEWIGRIYPGDGDSNYNGKFEGKAILTADKSSSTAYMQLSSLTSVDSAVYFCARSGLLRYAMDYWGQGTSVTVSS
B3: 14B7 scAb (scFv)
chain: DIQMTQTTSSLSASLGDRVTISCRASQDIRNYLNWYQQKPDGTVKLLIYYTSRLQSGVPSRFSGSGSGTDYSLTISNQEQEDIGTYFCQQGNTLPWTFGGGTKLEIKRGGGGSGGGGSGGGGSGGGGSEVQLQQSGPELVKPGASVKISCKDSGYAFSSSWMNWVKQRPGQGLEWIGRIYPGDGDTNYNGKFKGKATLTADKSSSTAYMQLSSLTSVDSAVYFCARSGLLRYAMDYWGQGTSVTVSS

Key:
[1] = target: T1, Bacillus anthracis protective antigen (PA) (Bacillus anthracis, UniProt P13423 30-764)
T1 sequence (P13423 30-764 limits assumed): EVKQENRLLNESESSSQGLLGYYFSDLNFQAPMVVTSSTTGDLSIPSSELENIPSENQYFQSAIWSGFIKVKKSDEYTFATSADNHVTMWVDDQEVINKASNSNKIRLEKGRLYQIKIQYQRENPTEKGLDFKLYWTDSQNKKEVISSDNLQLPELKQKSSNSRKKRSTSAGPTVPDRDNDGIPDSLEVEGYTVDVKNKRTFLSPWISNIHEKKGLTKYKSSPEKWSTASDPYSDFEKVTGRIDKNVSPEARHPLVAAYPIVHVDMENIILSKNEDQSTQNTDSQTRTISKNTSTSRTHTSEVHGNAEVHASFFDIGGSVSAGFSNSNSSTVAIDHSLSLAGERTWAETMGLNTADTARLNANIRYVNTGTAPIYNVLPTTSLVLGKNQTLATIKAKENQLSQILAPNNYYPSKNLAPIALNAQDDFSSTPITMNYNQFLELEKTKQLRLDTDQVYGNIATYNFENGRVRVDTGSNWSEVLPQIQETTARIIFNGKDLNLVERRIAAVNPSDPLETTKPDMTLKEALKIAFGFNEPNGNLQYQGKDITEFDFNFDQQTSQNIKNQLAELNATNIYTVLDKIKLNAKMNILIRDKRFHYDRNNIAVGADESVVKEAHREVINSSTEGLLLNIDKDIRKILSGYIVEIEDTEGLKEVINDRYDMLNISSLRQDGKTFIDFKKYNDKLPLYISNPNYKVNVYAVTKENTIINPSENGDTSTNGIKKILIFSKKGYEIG

[2] = target: T1, Bacillus anthracis protective antigen …; experiment: SPR, purified scAb on immobilized PA ('Affinity Measurements of Purified scAb')
[3] = target: T1, Bacillus anthracis protective antigen …; experiment: SPR (BIACore 3000), PA on CM5 chip, scAb in solution
[4] = target: T1, Bacillus anthracis protective antigen …; experiment: SPR (BIACore 3000)
[5] = target: T1, Bacillus anthracis protective antigen …; experiment: SPR (BIACore 3000), PA on CM5 chip

Binder	fold higher mean fluorescence intensity compared to controls [1]	kon [2]	Kd [3]	koff [3]	fold affinity improvement compared to the parental antibody 14B7 [4]	koff [2]	Kd [5]
B1	~9 fold						
B2		1.2e+06 M⁻¹ s⁻¹	0.035 nM	4.2e-05 s⁻¹	> 120 fold		
B3		710000 M⁻¹ s⁻¹				0.003 s⁻¹	4.3 nM
